Measured values published in patent US11918610B2, “Methods for diagnosis and treatment of type 1 diabetes” (priority 2018, dated 2024).

Tested on: non-obese diabetic mice (NOD/ShiLtJ) colonized with E. coli VT-55
Assay type: in vivo
Settings: NOD mice gavaged with E. coli VT-55; regimen of each agent as in Table 3; positive control (no therapy) 16, negative controls 24 and 26
Procedure: For this study non-obese diabetic mice (NOD/ShiLtJ) 8 weeks old (Jackson Laboratory, Bar Harbor, Me., USA) were housed and bred under specific pathogen-free conditions. Mice were maintained in a temperature controlled (22±2° C.) animal facility with a 12 hour light/dark cycle and were allowed free access to food and acidified drinking water. To increase the efficacy of E. coli transfer, all animals were exposed to antibiotic treatment before the transfer of E. coli. Starting at three weeks of age, recipient mice were treated with ampicillin (1 g/L) in the drinking water for the next 4 weeks. The bacterial strains used: E. coli strain VT-55—a wild-type, amyloid-producing strain. E. coli VT-55 bacteria were administered with oropharyngeal gavage to 8 week old female mice at 10^8 CFU, 2 times a week. Acceleration of T1D development was accessed by measuring blood glucose in a manner consistent with diabetes monitoring, using a FreeStyle Lite meter and test strips (Abbott). Blood glucose was evaluated weekly via a tail vein. T1D development was defined as occurring after two consecutive blood glucose measurements of at least 250 mg/dL.
TTR was expressed in E. coli VT-243. The TTR protein was precipitated from the supernatant of a 48 hour culture of E. coli VT-243 after centrifugation (12,000×g, 20 minutes 4° C.) of the lysed cells in the gradient 40-90% ammonium sulfate fraction (1.8-3.6 M). The precipitate that contained TTR was dialyzed overnight against 10 mM sodium phosphate buffer, pH 7.5, 100 mM KCl, 1 mM EDTA. The same volume of 200 mM sodium acetate buffer (pH 4.4, 100 mM KCl, 1 mM EDTA) was added to achieve a final pH of 4.5, and the mixture was then incubated for 18 hours at 37° C. Following centrifugation (45 min, 30,000×g, 4° C.), the supernatant was gel filtrated (Superdex 75) to elute phosphate buffer.
To develop nanoparticles with siRNA, we used cholesterol, distearoyl-sn-glycerol-3-phosphocholine (DSPC) and PEG2000-DMG (all Sigma). Nanoparticles were prepared by dissolving the 306013 lipidoid, cholesterol, DSPC, and PEG2000-DMG with final molar ratio of 50:38.5:10:1.5 in a 90% ethanol enriched with 10% 10 nM sodium citrate. Particles were formed following vortexing of equal volumes of siRNA solution with the lipid solution and subsequent dilution in PBS. Mice were orally gavaged with nanoparticles loaded with siRNA at a dose of 5 mg/kg.
The EcVac vaccine consisted of conjugates containing the 0-antigens of serotypes 06 of E. coli VT-55. […] The suspension for iv administration was made in TBS, (pH 7.4; 25 mmol Tris, 137 mmol NaCl, 2.8 mmol KCl).
Balb/c mice were immunized (10 μg) intraperitoneally and boosted (1 μg) subcutaneously with the E. coli amyloid isolated as previously described. Splenocytes were removed under sterile conditions, washed and hybridized to murine plasmacytoma parent cell line SP2/OAg14 using 40% polyethylene glycol and a spleen cell to plasmacytoma cell ratio of 5:1. Cells were plated in 96-well microtiter (Sarstedt) plates at 100,000 cells/per well with DMEM supplemented with 10% fetal bovine serum. Following 48h, cells were supplemented with hypoxanthine (100 PM) containing medium. After three washes with PBS-1% BSA, the presence of specific antibody binding was detected by ELISA. Serotype specific wells were cloned. Pristine-primed BALB/c mice were IP injected with 1×10^7 hybridoma cells. Ascites fluid was collected 14 days later, centrifuged (5000 g, 20 min, Eppendorf) and stored at −80° C. before use.

B1: T7 Endonuclease I: T7 Endonuclease I (New England Biolabs) (protein, UniProt P00641 1-149, looked up)
Endonuclease I: MAGYGAKGIRKVGAFRSGLEDKVSKQLESKGIKFEYEEWKVPYVIPASNHTYTPDFLLPNGIFVETKGLWESDDRKKHLLIREQHPELDIRIVFSSSRTKLYKGSPTSYGEFCEKHGIKFADKLIPAEWIKEPKKEVPFDRLKRKGGKK
- Median T1D incidence 50% (weeks): 22 weeks
